# Test results from US20020114780A1, “Methods of increasing distribution of therapeutic agents” (priority 2000, published 2002).
# Legend:
# [1] = format: in vivo; conditions: for increase in Vd when co-infused with heparin: 5 μg protein in 5 μl, 0.2 μl/min, with heparin (18 μg) vs infused alone; for Vd/Vi ratio: low volume (5 μl) infusion, apparently with heparin co-infusion (FIG. 2b)
# Description: (§1) The animals were anesthetized with ketamine (10 mg/kg) and xylazine (3 mg/Kg) via intraperitoneal injection and placed in a Kopf small animal stereotactic frame. A sagittal incision was made through the skin and a burr hole was placed into the skull with a twist drill. The cannula coordinates were: 0.5 mm anterior to bregma, 2.8 mm to the right of bregma, and 5 mm below the dura.
# (§2) The infusion apparatus consisted of a hydraulic drive serially connected to a syringe pump. This depressed the plunger of one of two 250 μl Hamilton syringes connected by cannulas made from polyetheretherketone (PEEK) tubing (inner diameter 250 μm) and filled with distilled water. One of the 250 μl Hamilton syringes was secured to the stereotactic frame and was contiguous with an infusate-filled 10 or 50 μl Hamilton syringe. Since the system was non-compliant (zero dead space), the compression of the syringe pump of the infusion apparatus led to the measured release of infusate from the 10 or 50 μl Hamilton syringe in a uniform fashion. All infusions were performed with a 32 g cannula at 0.2 μl/min (6).
# The vehicle was 4% mannitol in 10 mM HEPES. […]
# (§3) The brains were cut into 40 μm serial coronal sections on a cryostat. Frozen sections were collected in a series in antifreeze solutions and stored at −70° C. Every 12th section was stained for immunohistochemistry.
# Sections were washed in phosphate buffered saline (PBS) and incubated in 3% H2O2 for 20 minutes to block endogenous peroxidase activity. […] The sections were then incubated for 1 hour in biotinylated anti-mouse IgG secondary antibody (Vector Labs, 1:300). Antibody binding was visualized with streptavidin horseradish peroxidase (Vector Labs, 1:300) and VIP chromogen (Vector Labs). Sections were then coverslipped and examined under light microscopy. Vd was measured using NIH image analysis software.
# The volume of distribution of BSA and the GDNF family of trophic factors was analyzed using a Macintosh-based image analysis system. Images of stained tissue slices were captured by a CCD camera using Adobe Photoshop software. Using NIH Image Analysis software, the area of distribution of infused protein in each tissue section was automatically determined using a threshold of 50% of the maximal stained optical density. The sum of the areas of infusion was used to determine the Vd in each striatum.
# [2] = system: dopamine utilization; assay: Dopamine utilization: striatal DOPAC/DA ratio by HPLC 4 days after intrastriatal infusion; format: in vivo, rat
# Description: In the study analyzing dopamine metabolism following trophic factor administration, the animals were infused with 5 μg of NTN in 5 μl of vehicle with and without heparin (2.5 units) and sacrificed after 4 days. The vehicle was 4% mannitol in 10 mM HEPES. After completing infusion, the cannula was withdrawn at 1 mm/minute. Following the procedure, the animals used for immunohistochemical analysis were intracardially perfused with 4% paraformaldehyde. Brains were harvested and immersed overnight in 4% paraformaldehyde. The brains were cryoprotected through immersion in graded sucrose solution (20-30%) and frozen at […]. Animals to be used in HPLC studies were euthenized and the brains were harvested and fresh frozen at −70°.
# Animals were sacrificed 4 days after intrastriatal infusion of 5 μl vehicle with 18 μg of heparin, 5 μg of NTN in 5 μl of vehicle or 5 μg of NTN in 5 μl of vehicle with 18 μg of heparin. After decapitation, the brains were rapidly removed and chilled in ice for 4 minutes. They were sliced 1 mm anterior and 2 mm posterior to the injection site using a chilled plastic brain mold. For biochemical studies, frozen punches from the striatum were taken from the injected and uninjected sides for comparison. […] Dopamine (DA), serotonin (5-HT) and their metabolites were measured by HPLC using Ultrasphere C-18 ion pair column, 5μ, 4.6 mm×25 cm (Beckman 235329): a Waters 717 plus autosampler, Waters 510 pump at 0.8 ml/min, and an amperometric electrochemical detector (EiCom CB-100) set at 0.78 V. The mobile phase contained 2-1 deionized water, 2.8 g L-heptanesulfonic acid sodium salt, 0.17 g EDTA, 20 ml triethylamine and 50 ml acetonitrile, pH was adjusted to 2.6 with 13 ml of 85% phosphoric acid. The results were recorded and analyzed with Waters Millenium 2010 Chromatography Manager software. Protein concentration in the tissue pellet was determined using the BCA Protein Assay Kit (Pierce #23225). The results are expressed as nM/hr/mg of protein.
# [3] = Histological examination of infused brains for hemorrhage and tissue damage; format: in vivo, rat; conditions: heparin 0.5 units/μl, low volume studies
# Description: Studies were conducted to establish whether CED could be used to distribute trophic factors within the GDNF family over volumes that might be relevant to larger primate brains. High volume infusions (20 μl) of NTN with heparin were able to cover significant volumes of the rat brain (FIG. 3). […] Maximum Vd attained following co-infusion with heparin was 37.3 mm^3, compared to a maximum Vd of 11.0 mm^3 in control animals (FIG. 3). At this infusion volume, in 4 out of 6 animals in which NTN was co-infused with heparin, the striatum was completely stained, as opposed to none of the subjects infused with NTN alone. There was no evidence of hemorrhage (H&E stain) in any of the specimens following the high volume infusions.
# All brains had well demarcated areas of antibody staining following immunohistochemistry. In all brains, there was no evidence of tissue damage, with the exception of the needle track and some non-specific drill-induced cortical lesions. There was no evidence of hemorrhage in any animal at 0 or 4 days after infusion.
# This emphasizes the importance of receptor binding in drug distribution as well.
# [4] = CED high volume (20 μl) NTN intrastriatal infusion, volume of distribution by immunohistochemistry; format: in vivo, rat
# Description: as §1, §2
# The vehicle was 4% mannitol in 10 mM HEPES. In the high volume experiment, 50 μg of NTN in 20 μl of vehicle with (n=6) and without (n=6) heparin (71 μg) was delivered into the striatum.
# as §3
# Sections were washed in phosphate buffered saline (PBS) and incubated in 3% H2O2 for 20 minutes to block endogenous peroxidase activity. […] Vd was measured using NIH image analysis software.
# The volume of distribution of BSA and the GDNF family of trophic factors was analyzed using a Macintosh-based image analysis system. […] Using NIH Image Analysis software, the area of distribution of infused protein in each tissue section was automatically determined using a threshold of 50% of the maximal stained optical density. […]
molecule,measurement,setting,value
Artemin,increase in Vd when co-infused with heparin,[1],greater than 10 fold
heparin [reference compound],DOPAC/DA levels compared to the uninjected (left) striatum,"[2]; 5 μl vehicle with 18 μg heparin, 4 days",no change
same,gross or microscopic hemorrhage,[3],no evidence of gross or microscopic hemorrhage
"Neurturin (protein, UniProt Q99748 96-197, looked up, trophic factor of the GDNF ligand family) Neurturin: ARLGARPCGLRELEVRVSELGLGYASDETVLFRYCAGACEAAARVYDLGLRRLRQRRRLRRERVRAQPCCRPTAYEDEVSFLDAHSRYHTVHELSARECACV",increase in Vd when co-infused with heparin,[1],7 fold
same,Vd/Vi ratio,[1],4.6
same,animals in which the striatum was completely stained,"[4]; 20 μl infusion, n=6 per group",none
same,Maximum Vd,"[4]; rat, in vivo",11.0 mm^3
same,Vd,"[4]; rat, in vivo",7.7+/−1.1 mm^3
same,DOPAC/DA ratio,"[2]; 5 μg NTN in 5 μl, with or without heparin 18 μg, 4 days after infusion, mean +/- S.E.",146+/−14.2 percentage of the uninjected h
same,DOPAC/DA ratio compared to the vehicle+heparin group,"[2]; 4 days after right striatal infusion, Fisher test",significantly increased
"GDNF (protein, UniProt P39905 78-211, looked up, glial cell line-derived neurotrophic factor, trophic factor provided by Genentech) Glial cell line-derived …: SPDKQMAVLPRRERNRQAAAANPENSRGKGRRGQRGKNRGCVLTAIHLNVTDLGLGYETKEELIFRYCSGSCDAAETTYDKILKNLSRNRRLVSDKVGQACCRPIAFDDDLSFLDDNLVYHILRKHSAKRCGCI",increase in Vd when co-infused with heparin,[1],5 fold
same,Vd/Vi ratio,[1],5.0
same,effect of heparin co-infusion on Vd,"[1]; rat, in vivo",significantly increased
